Assay results as given in article PMC13080021.
Read-outs that look alike come from different tables or passages of the source.

Columns and labels:
[1] = target: measles virus (MeV) phosphoprotein (P), optimized construct (human measles virus) (UniProt P03422); assay: cryo-EM structure
[2] = target: eGFP-tagged measles virus C protein, full length (human measles virus) (UniProt P03424); assay: MST
[3] = target: eGFP-tagged measles virus C protein, full length (human measles virus) (UniProt P03424); assay: MST; remark: listed apart in the source

Substance | stoichiometry N [1] | Kd [2] | Kd [3]
measles virus (MeV) phosphoprotein (P), optimized construct (from UniProt P03422 1-507) (natural protein) | 4 |  | 
measles virus (MeV) N protein, monomeric (N_ΔN-arm) (domain or fragment) |  | 3.92 µM | 4.57 µM
